Experimental data as given in patent publication EP4793288A1 (Imbiologics Corp., dated 2025).
Where a chain is given by its changes, count along the chain named.

B1: 2F1CDRH3#10 (antibody, human IgG1, kappa, V domains shown)
VH: EVQLVESGGGLVQPGGSLRLSCAASGFTFSSYAMSWVRQAPGKGLEWVSRISGSGGYKYYADSVKGRFTISRDNSKNTLYLQMNSLRAEDTAVYYCAKEGTSSYRGWMDVWGQGTLVTVSS
VL: IQMTQSPSSLSASVGDRVTITCRASQSISNYLNWYQQKPGKAPKLLIYATSTLQSGVPSRFSGSGSGTDFTLTISSLQPEDFATYYCQQSYTTPWTFGQGTKVEIKR
B2: Afucosylated 2F1CDRH3#17 (antibody, human IgG1, kappa, V domains shown)
VH: B1 VH with S31D, S54T, G56S, S103T
VL: DIQMTQSPSSLSASVGDRVTITCRASQSISNYLNWYQQKPGKAPKLLIYATSRLQSGVPSRFSGSGSGTDFTLTISSLQPEDFATYYCQQSYTTPWTFGQGTKVEIKR
modifications: afucosylated glycan (antibody produced with 400 µM 2-deoxy-2-fluoro-L-fucose in the medium)
B3: Afucosylated 2F1CDRH3#26 (antibody, human IgG1, kappa, V domains shown)
VH: B1 VH with G56S, K58T, T101A
VL: B2 VL with Y92H, T93S
modifications: afucosylated glycan (antibody produced with 400 µM 2-deoxy-2-fluoro-L-fucose in the medium)
B4: Afucosylated 2F1HS6LS#38 (antibody, V domains shown)
VH: B1 VH with S31D, G53Q, G56S, K58T
VL: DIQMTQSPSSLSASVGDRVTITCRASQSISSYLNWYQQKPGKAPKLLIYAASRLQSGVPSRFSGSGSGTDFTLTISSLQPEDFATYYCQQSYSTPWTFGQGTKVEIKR
modifications: afucosylated glycan (antibody produced with 400 µM 2-deoxy-2-fluoro-L-fucose in the medium)
B5: Afucosylated 2F1HS6LS#46 (antibody, human IgG1, kappa, V domains shown)
VH: B1 VH with S31D, G53Q, G56S, K58T
VL: B2 VL with Y32W, T93S
modifications: afucosylated glycan (antibody produced with 400 µM 2-deoxy-2-fluoro-L-fucose in the medium)
B6: Afucosylated positive control antibody (antibody, human IgG1, kappa, V domains shown)
VH: QLQLQESGPGLVKPSETLSLTCTVSGGSISSSSTYWSWIRQPPGKGLEWIGGIAYSGSTYYNPSLKSRVTISVDTSKNQFSLKLSSVTAADTAVYYCARGVRRAVPEDYWGQGTLVTVSS
VL: EIVLTQSPGTLSLSPGERATLSCQASQAVSSNYLAWYQQKPGQAPRLLIYGASSRATGIPDRFSGSGSGTDFTLTISRLEPEDFAVYYCQQVVHSPYTFGGGTKVEIKR
modifications: afucosylated glycan
B7: 2F1_LS#26 (antibody, human IgG1, kappa, V domains shown)
VH: B1 VH with K58I
VL: B2 VL with T93S, T94F
B8: 2F1 (antibody, human IgG1, kappa, V domains shown)
VH: B1 VH with K58I
VL: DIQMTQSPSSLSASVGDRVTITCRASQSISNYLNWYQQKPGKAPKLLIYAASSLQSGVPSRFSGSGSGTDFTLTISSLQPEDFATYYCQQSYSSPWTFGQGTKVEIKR
notes: produced in Expi293F cells
B9: 2F1CDRH3#16 (antibody, human IgG1, kappa, V domains shown)
VH: B1 VH with S31D, G53S, G56S, K58T, S103K
VL: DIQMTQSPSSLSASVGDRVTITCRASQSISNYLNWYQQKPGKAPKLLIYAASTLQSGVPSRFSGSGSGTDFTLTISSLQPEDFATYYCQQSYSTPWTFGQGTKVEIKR
B10: 2F1CDRH3#17 (antibody, human IgG1, kappa, V domains shown)
VH: B1 VH with S31D, S54T, G56S, S103T
VL: B2 VL
B11: 2F1CDRH3#26 (antibody, human IgG1, kappa, V domains shown)
VH: B1 VH with G56S, K58T, T101A
VL: B2 VL with Y92H, T93S
B12: 2F1HS6LS#46 (antibody, human IgG1, kappa, V domains shown)
VH: B1 VH with S31D, G53Q, G56S, K58T
VL: B2 VL with Y32W, T93S
B13: 2F1_LS#17 (antibody, human IgG1, kappa, V domains shown)
VH: B1 VH with K58I
VL: B2 VL with T51A, G57D, T93S
B14: 2F1_LS#24 (antibody, human IgG1, kappa, V domains shown)
VH: B1 VH with K58I
VL: B2 VL with Y32W, T51A, T94S
B15: 2F1_LS#39 (antibody, human IgG1, kappa, V domains shown)
VH: B1 VH with K58I
VL: B2 VL with N31R, R53N, Q55H, T94S
B16: 2F1HS6LS#38 (antibody, V domains shown)
VH: B1 VH with S31D, G53Q, G56S, K58T
VL: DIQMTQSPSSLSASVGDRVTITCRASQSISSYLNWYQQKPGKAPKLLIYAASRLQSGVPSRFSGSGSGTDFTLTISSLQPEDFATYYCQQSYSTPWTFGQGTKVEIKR
B17: Positive control antibody (antibody, human IgG1, kappa, V domains shown)
VH: B6 VH
VL: B6 VL
B18: Afucosylated 2F1CDRH3#10 (antibody, human IgG1, kappa, V domains shown)
VH: B1 VH
VL: B1 VL
modifications: afucosylated glycan (antibody produced with 400 µM 2-deoxy-2-fluoro-L-fucose in the medium)
B19: Afucosylated 2F1CDRH3#16 (antibody, human IgG1, kappa, V domains shown)
VH: B1 VH with S31D, G53S, G56S, K58T, S103K
VL: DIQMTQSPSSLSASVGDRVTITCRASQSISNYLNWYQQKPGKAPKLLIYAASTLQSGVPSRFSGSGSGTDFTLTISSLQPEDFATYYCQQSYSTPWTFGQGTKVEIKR
modifications: afucosylated glycan (antibody produced with 400 µM 2-deoxy-2-fluoro-L-fucose in the medium)
B20: T22A4 (antibody, human IgG1, kappa, V domains shown)
VH: EVQLVESGGNWVQPGGSLRLSCAASGFSFRSYAMSWVRQAPGKGLEWVSSISGSGNSELYAGSVKGRFTISRDNSKNTLSLQLHSLRAEDTAMYYCAKFSAAVGFLPDYFDSWGQGTLVTVSS
VL: ELTLTQSPSSLSASVGDRVTITCQASHDISKYLNWYQQKSGKAPKLLIYDASNLETGVPSRFSGSGSGTDFTLTISSLQPEDFATYYCQQSYRTPLTFGGGTKLEIKR
B21: T23D5 (antibody, human IgG1, kappa, V domains shown)
VH: QVQLQESGPGLVKPSETLSLTCTVSGGSIDRSSHYWGWIRQPPGKGLEWLGSIYYSGITYYNPSLKSRVTISVDTSRNQFSLTLSSVTAADTAVYYCARHGSYDSWAGRYKWDRFDPWGQGTPVTVSS
VL: B20 VL with T3Q, L4M, R93S, L104V

Experiments:
B2M = B2M (UniProt P61769 21-119); test: ELISA
Sequence of B2M (P61769 21-119 limits assumed): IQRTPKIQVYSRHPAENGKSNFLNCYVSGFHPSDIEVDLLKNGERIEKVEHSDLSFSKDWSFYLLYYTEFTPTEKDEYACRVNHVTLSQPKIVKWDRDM

[1] = target: T1, HLA-G expressed on the cell surface (human, UniProt P17693 25-338); test: flow cytometry on JEG-3 and SCH cells naturally expressing HLA-G, anti-human IgG PE
T1 construct: whole, on cells; The cell line of each entry is named under assay or readout; also called HLA-G on JEG-3 cells; HLA-G on SCH cells

[2] = target: T1, HLA-G expressed on the cell surface; test: cell-based or functional assay
[3] = target: T2, Recombinant HLA-G antigen (human, UniProt P17693 25-308, limits assumed); test: BLI (Octet), antibody on anti-human IgG Fc capture biosensor, HLA-G antigen 100 to 1.56 nM
T2 construct: also called recombinant HLA-G protein

Binder	binding result (B2M)	fold HLA-G binding activity against the positive control antibody [1]	EC50 (nM), ADCC reporter assay on SKOV-3/HLA-G cells [2]	EC50 (nM), ADCC reporter assay on SKOV-3/HLA-G cells, afucosylated antibody [2]	Kd [3]	koff [3]
B1	no binding	≥ 3 fold	0.08 nM			
B2				0.01 nM		
B3				0.02 nM		
B4				0.07 nM		
B5				0.02 nM		
B6				0.13 nM		
B7	no binding				0.698 nM	2.82e-05 s⁻¹
B8	no binding				0.523 nM	0.00013 s⁻¹
B9	no binding	≥ 3 fold	0.17 nM			
B10	no binding	≥ 3 fold	0.07 nM			
B11	no binding	≥ 3 fold	0.1 nM			
B12	no binding	≥ 3 fold	0.15 nM			
B13	no binding				0.689 nM	0.000138 s⁻¹
B14	no binding				0.553 nM	0.00012 s⁻¹
B15	no binding				0.567 nM	0.000106 s⁻¹
B16	no binding	≥ 3 fold	0.93 nM			
B17			1.59 nM		1.36 nM	0.000157 s⁻¹
B18				0.01 nM		
B19				0.02 nM		
B20	no binding					
B21	no binding					
